Data published in publication PMC7259690.

Target: 10042.05.SOSIP trimer (recombinant HIV-1 Env trimer 10042.05 from subject VC10042, cleaved SOSIP form) (HIV-1)
Test: SEC + native gel or EMSA; Superdex 200 16/600 pg SEC after lectin and ion exchange steps; fractions and final preparation on blue native PAGE; analytical SEC as QC

“10042.05.SOSIP trimer (recombinant HIV-1 Env trimer 10042.05 from subject VC10042, cleaved SOSIP form) (complex)” was tested, and the stoichiometry N was 3.
